{"source": "patent US20260022171A1", "key": {"[1]": {"biological_target": "human CD200R1 on cells (human) (UniProt Q8TD46)", "assay": "flow cytometry, blocking: U937 cells stably expressing hu-CD200R1 incubated with the antibody, then with 55 nM huCD200-Fc-Flag, detected with anti-Flag PE (MFI)"}, "[2]": {"biological_target": "human CD200R1 on cells (human) (UniProt Q8TD46)", "assay": "flow cytometry, biotinylated antibody on human CD4+ T cells (pan T cells of a healthy donor), streptavidin-PE, geometric mean; unit from the axis Log M"}, "[3]": {"biological_target": "human CD200R1 on cells (human) (UniProt Q8TD46)", "assay": "flow cytometry, biotinylated antibody on human CD8+ T cells (pan T cells of a healthy donor), streptavidin-PE, geometric mean; unit from the axis log M"}, "[4]": {"biological_target": "human CD200R1 on cells (human) (UniProt Q8TD46)", "assay": "cell-based or functional assay"}, "[5]": {"biological_target": "cynomolgus monkey CD200R1 on cells (cynomolgus monkey)", "assay": "flow cytometry, biotinylated antibody on cynomolgus monkey CD4+ T cells (PBMC), streptavidin-PE, MFI; monkey #143"}, "[6]": {"biological_target": "cynomolgus monkey CD200R1 on cells (cynomolgus monkey)", "assay": "cell-surface binding, cynomolgus CD4+ T cells"}, "[7]": {"biological_target": "cynomolgus monkey CD200R1 on cells (cynomolgus monkey)", "assay": "cell-surface blocking, MfCD200-Fc on K562 cells expressing MfCD200R1"}, "[8]": {"biological_target": "cynomolgus monkey CD200R1 on cells (cynomolgus monkey)", "assay": "flow cytometry, biotinylated antibody on cynomolgus monkey CD4+ T cells (PBMC), streptavidin-PE, MFI; monkey #0013"}, "[9]": {"biological_target": "cynomolgus monkey CD200R1 on cells (cynomolgus monkey)", "assay": "flow cytometry on cynomolgus monkey CD4+ T cells"}, "[10]": {"biological_target": "cynomolgus monkey CD200R1 on cells (cynomolgus monkey)", "assay": "flow cytometry, biotinylated antibody on cynomolgus monkey CD4+ T cells (PBMC), streptavidin-PE, MFI; monkey #0023"}}}
{"binder": "h22.1 (humanized 22.1 IgG) (antibody, V domains shown) VH: EVQLVQSGAEVKKPGASVKVSCKASGYTFTSYVMFWVRQAPGQRLEWIGYINPYNDDTKYNEKFKGRATLTSDKSASTAYMELSSLRSEDTAVYYCAREDYYGSRFVYWGQGTLVTVSS VL: DIQLTQSPSSLSASVGDRVTITCRASKSVSTSGYSYMHWYQQKPGKPPKLLIYLASNLESGVPSRFSGSGSGTDFTLTISSLQPEDFATYYCQHNRELLTFGGGTKVEIKR", "values": [{"measurement": "IC50", "setting": "[1]", "value": 1.8, "unit": "nM"}, {"measurement": "EC50", "setting": "[2]", "value": 3.04, "unit": "nM"}, {"measurement": "EC50", "setting": "[3]", "value": 1.91, "unit": "nM"}, {"measurement": "pDok2 induction, western blot, U937 cells expressing CD200R1", "setting": "[4]", "value": 5.6, "unit": "nM"}]}
{"binder": "h10F6.V1 (antibody, IgG1, V domains shown) VH: EVQLQESGPGLVKPSETLSLTCTVSGFSLTNYRVSWVRQPPGKGLEWLGVMYAGGGTNYNSVFKSRLTISKDNSKNQVSLKLSSVTAADTAVYYCARERPLTGVMDNWGQGTLVTVSS VL: DIVLTQSPDSLAVSLGERATINCRASESVDYSGNSFMHWFQQKPGQPPKLLIYRASNLESGIPDRFSGSGSRTDFTLTISSLQAEDVAVYYCHQSNWDPPTFGGGTKVEIKR", "values": [{"measurement": "EC50 (read off the curve)", "setting": "[5]", "value": 1, "unit": "nM"}, {"measurement": "EC50", "setting": "[6]", "value": 1.3, "unit": "nM"}, {"measurement": "IC50", "setting": "[7]", "value": 0.5, "unit": "nM"}, {"measurement": "EC50 (read off the curve)", "setting": "[8]", "value": 1, "unit": "nM"}, {"measurement": "EC50", "setting": "[9]", "value": "0.34 to 1.54", "unit": "nM"}, {"measurement": "EC50 (read off the curve)", "setting": "[10]", "value": 0.9, "unit": "nM"}]}
